Laboratory results from the supplement of paper PMC12042874.
± gives the uncertainty stated by the source.

Test: amyloid nucleation score (Sup35N fusion, yeast selection) (log enrichment); library NNK2; higher = more nucleation; inactive = no reads after selection
Summary of the method: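 The nucleation score, computed with DiMSum, is the log enrichment of output over input reads, centred on the mode score of non-aggregating sequences. Sequences with under 100 input reads were dropped. Reads were generated by Illumina sequencing of plasmid inserts from psi-negative yeast with Sup35N fused to peptides of 20 random codons, induced with 100 μM copper sulfate for 24 hours and grown 7 days at 30°C on medium lacking adenine and uracil.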

Row | Substance | amyloid nucleation score
1 | REFQWCRSLMRYVRGWLVV | 3.19 ± 0.16
2 | RELKCQCLERVLLRVRQCAM | 6.821 ± 0.056
3 | RELLSLSYSLVMCVVLRV | 0.734 ± 0.18
4 | RELYYRMAVLNQSTTTLYRG | inactive
5 | RESGLRFNNYMMRWLHGGRV | -0.072 ± 0.29
6 | RESYMLSYGKILNACQCIVG | 9.12 ± 0.079
7 | RFCWAMYNGFPHK | 4.33 ± 0.059
8 | RFCWC | 7.365 ± 0.042
9 | RFDHMSYRSCPRESEFEVTC | inactive
10 | RFDINHCIKRCRFGRLVAEI | 3.12 ± 0.1
11 | RFERISQAKIARTLGLWEML | 0.878 ± 0.17
12 | RFFGTTFYTAMMTRGFETVT | -0.139 ± 0.28
13 | RFHELCV | 0.998 ± 0.74
14 | RFILMNLAIVVDFVGS | 6.92 ± 0.078
15 | RFLAN | inactive
16 | RFLCFLPNNYLFSAGFSLVL | inactive
17 | RFMFPRTSIVWNASYVVGVL | 2.92 ± 0.11
18 | RFMVTTAGRVLPLLSMRGWA | 4.68 ± 0.061
19 | RFMWLTLSSFQGLAEGLCTF | -0.631 ± 0.76
20 | RFNGN | -0.541 ± 1.1
21 | RFRCTTSSLRGLFWPNTWKK | -0.301 ± 0.76
22 | RFRKSLGALALRRIVGSEAM | 1.53 ± 0.39
23 | RFRRLSIIVILYTASRDLWR | 0.289 ± 0.41
24 | RFSCTKFRGKGLFWMLKCVL | -0.835 ± 0.27
25 | RFSLSMDLLNPYST | 4.15 ± 0.13
26 | RFSVDRSSRELICMLGQFDN | 0.356 ± 0.38

Row | Substance | amyloid nucleation score
27 | RFTVFRSLKNYSRMHPLIKG | 4.929 ± 0.046
28 | RFYKSNGPRF | -1.28 ± 0.78
29 | RFYTVSRSRLSGMSMYLCRV | -0.294 ± 0.26
30 | RGERVSPNNGTS | 0.87 ± 0.14
31 | RGGRSVRTVNWPSYMMSVPD | -0.076 ± 0.3
32 | RGGTKRGELCDALNHQFSVL | 0.413 ± 0.22
33 | RGRTGRCSAFSQSILNGLRA | -0.181 ± 0.63
34 | RGSVNCGLFLSRKSDASGRG | 0.234 ± 0.57
35 | RGVKDRKRQVQFEKSSRSMA | 0.361 ± 0.21
36 | RHCDLQSRLPSTWYLVRYPC | 0.885 ± 0.74
37 | RHFMLSSTCPEGMNENGTFS | 0.811 ± 0.51
38 | RIIYEAC | -0.865 ± 0.23
39 | RIMSCNQITNIICVL | 4.89 ± 0.078
40 | RIQDLMVLTEGYRRDVIGPG | 0.533 ± 0.56
41 | RISRFCL | 1.52 ± 0.26
42 | RISSSGRP | 2.03 ± 0.082
43 | RITWFVIFIHCCKGLIR | -0.369 ± 0.54
44 | RIVLLLNVYNTREM | 5.04 ± 0.1
45 | RKAMRYVVCDRRPMCYRNSW | 0.752 ± 0.43
46 | RKCSGNAMRSLCSDPVRCVK | 0.669 ± 0.32
47 | RKMGSFNHLSERVSYHCVWL | 3.96 ± 0.052
48 | RKWYGQTSARADVAVS | 0.232 ± 0.25
49 | RLAFSKE | -0.065 ± 0.46
50 | RLASSIRWTTFSSDGRVRIL | 0.783 ± 0.57
51 | RLCRSAPG | 1.3 ± 0.44
52 | RLGIVSSVLVYWLYNYYSVL | inactive

Row | Substance | amyloid nucleation score
53 | RLHEYVSLLRGNQRVAHSRS | 3.893 ± 0.037
54 | RLHPMRSNI | -0.43 ± 0.3
55 | RLKCSYTGSALLGRSLGNPE | 0.29 ± 0.54
56 | RLKLMQFLHLAPIVPAILCC | 0.444 ± 0.35
57 | RLKMEICDLTFPAQLFQTFG | 3.49 ± 0.079
58 | RLLALLGSCYWAGLDVSARI | 3.36 ± 0.097
59 | RLMCVLMGYRGSSGVDCRSA | 0.185 ± 0.27
60 | RLNCACFRADTVGDYLGVRL | -0.158 ± 0.29
61 | RLRVVEPGNACWGQMLG | 0.165 ± 1
62 | RLRVY | -0.781 ± 0.35
63 | RLSSHTVMAWVSCNWGDFTV | 9.919 ± 0.065
64 | RLSVA | 1.24 ± 0.26
65 | RLTDSSTGDFKNL | -1.45 ± 0.61
66 | RLTRALLCFTNKALDQCCST | inactive
67 | RLTYCSQFVWTWCCNRAING | 9.062 ± 0.024
68 | RLVRVGYLGRKTQRRSCQKL | 0.686 ± 0.2
69 | RLYHPSQWGDLILCIFVMEA | -0.343 ± 0.62
70 | RLYPLIVQFFMVCKT | 1.48 ± 0.23
71 | RLYSFCGIN | 1.68 ± 0.093
72 | RLYWVGGATGRFD | 2.02 ± 0.19
73 | RMDGNLQGHDDCVNV | 0.773 ± 0.29
74 | RMFDYDSGGNNRICYDYYAN | -1.69 ± 0.61
75 | RMFSIRFMWCFCSRRKPLLG | inactive
76 | RMKSFLLNFARNSLCVVRHG | 1.43 ± 0.41
77 | RMLRKSNGS | 0.066 ± 0.3
78 | RMNGRYNLCTATGLVSASWW | 0.09 ± 0.4

Row | Substance | amyloid nucleation score
79 | RMQVYGDMSKCKDSWFCFRT | 0.703 ± 0.4
80 | RMSHWLSYWVDKS | 0.938 ± 0.57
81 | RMSRVEWIPHVDFYPTHGLI | -0.439 ± 0.63
82 | RMTSHCMNSLIWQKNHGMRV | -0.348 ± 0.65
83 | RMWFVNNLDDWFLPTCLWDR | inactive
84 | RNCTRFPWSIM | 0.131 ± 1
85 | RNEQMSPCITWVNYPDYLRT | 0.909 ± 0.6
86 | RNESHVNLLGFMLDRRPDRG | 4.37 ± 0.071
87 | RNFGAVAFWVGWHWVVFSVG | -0.588 ± 0.29
88 | RNGLTFRRTYSAYC | 1.01 ± 0.25
89 | RNIVDISSNVRCWLGRPAIS | 3.27 ± 0.066
90 | RNLDNHRTFFSFRIGLFMWS | 6.13 ± 0.077
91 | RNLGLMVTILSAELFRRCLW | -0.812 ± 0.23
92 | RNSIYMVTYIMVLDRIA | 6.127 ± 0.046
93 | RNSLKARYWWGLSGLLKVW | -1.01 ± 0.55
94 | RNVGDLMSRGSYYSIPSGNL | -1.03 ± 0.41
95 | RPASKTMEDGCGLI | inactive
96 | RPGHYRTWYFSGFYSSPCQT | 1.49 ± 0.19
97 | RPGMARVFNAA | 0.673 ± 0.36
98 | RPNAVVFLTDNNVRRSDCWV | -0.639 ± 0.28
99 | RPSSWVVRCE | 0.223 ± 0.41
100 | RPVWDNWLTGFLGMPMWGKT | 0.112 ± 0.43
101 | RQAKPICCHMVLLDSWPKSM | 0.164 ± 0.35
102 | RQEINSYGNTPRRGGPRLRH | -0.093 ± 0.55
103 | RQFLSPNYATECGFQLRVGI | inactive
104 | RQIALCGLI | 3.47 ± 0.096

Row | Substance | amyloid nucleation score
105 | RQLHLVLNRVGWMLWYTH | 0.684 ± 0.26
106 | RQYCIKDSWGSSGQLSVGLR | 2.1 ± 0.17
107 | RRDFWPSVSLGCDFRIRFPR | 2.1 ± 0.12
108 | RRMTCALYVIRWFSVHYFYL | -1.79 ± 0.75
109 | RRRIRVCGSWFSGYN | -0.527 ± 0.5
110 | RRRTEGN | 0.304 ± 0.8
111 | RRRVDSLIFYIKMRVLFNMF | inactive
112 | RRSDKLAVLWYSDKRMARWS | -0.582 ± 0.33
113 | RRVGLSGRTKMSG | 0.048 ± 0.55
114 | RRYIMQSWLHATSEFPGCDP | 0.54 ± 0.53
115 | RSAFHCNWLISISSGKVSHM | -0.452 ± 0.55
116 | RSALVGGRHNVVNWVRGSKM | 0.079 ± 0.55
117 | RSAWYTG | -0.203 ± 0.5
118 | RSFIGDNYISLRC | -0.184 ± 0.29
119 | RSGAVQWRQRMGCMPSVCDR | 1.46 ± 0.26
120 | RSGLSVIYLYY | inactive
121 | RSHMSRLIVDFNTG | 0.474 ± 0.3
122 | RSIMIRHLKFRARGHTFSVN | 0.143 ± 0.36
123 | RSLCDL | -0.755 ± 0.54
124 | RSLHFFTSMHMCGRCLNRLF | 0.048 ± 0.45
125 | RSLSLLLVFLAMCAIMVPMR | 8.575 ± 0.04
126 | RSRSSFLHIFSSFKHISTR | -0.74 ± 1.1
